Reference: US20140186348A1 (published 2014)
Substitutions are numbered along the chain they refer to. Where two headings read alike, the source gives them in different places. Values belong to the binder of their own block, whether it stands above or below them.

Legend:
[1] = molecular target: T1, human properdin (human, UniProt P27918 28-469); test: ELISA
[2] = molecular target: T1, human properdin; test: ELISA; remark: listed apart in the source
[3] = molecular target: T1, human properdin; test: ELISA; remark: listed apart in the source
[4] = molecular target: T1, human properdin; test: ELISA, inhibition of properdin binding to C3b

T1 sequence (P27918 28-469): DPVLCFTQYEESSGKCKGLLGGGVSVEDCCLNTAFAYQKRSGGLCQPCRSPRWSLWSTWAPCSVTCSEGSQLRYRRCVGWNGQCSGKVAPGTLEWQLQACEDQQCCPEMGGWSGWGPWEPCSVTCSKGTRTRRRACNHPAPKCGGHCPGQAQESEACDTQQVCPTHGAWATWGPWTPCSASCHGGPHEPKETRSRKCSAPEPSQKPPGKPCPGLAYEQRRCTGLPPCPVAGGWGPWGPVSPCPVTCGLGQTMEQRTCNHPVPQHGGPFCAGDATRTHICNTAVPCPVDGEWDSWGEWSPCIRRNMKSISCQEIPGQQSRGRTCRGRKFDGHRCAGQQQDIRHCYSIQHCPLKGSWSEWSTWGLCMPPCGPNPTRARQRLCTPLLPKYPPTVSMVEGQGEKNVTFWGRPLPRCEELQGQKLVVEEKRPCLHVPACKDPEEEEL

B1: BAP010hum02 (humanized anti-properdin monoclonal antibody) (antibody, V domains shown)
VH: QVQLQESGPGLVKPSQTLSLTCTVSGYIFTNYPIHWVRQAPGKGLEWVSFIDPGGGYDEPDERFRDRVTISVDTSKNQFSLKLSSVTAADTAVYYCARRGGGYYLDYWGQG
VL: EIVLTQSPATLSLSPGERATLSCRASQDISFFLNWFQQRPGQSPRRLIYYTSRYHSGIPPRFSGSGYGTDFTLTINNIESEDAAYYFCQHGNTLPWTFGQG
- Kd [1]: 0.0138 nM

B5: BAP010hum03 (humanized anti-properdin monoclonal antibody) (antibody, V domains shown)
VH: EVQLVQSGAEVKKPGESLRISCKGSGYIFTNYPIHWIRQSPSRGLEWLGFIDPGGGYDEPDERFRDRVTISADKSISTAYLQWSSLKASDTAMYYCARRGGGYYLDYWGQG
VL: DIQMTQSPSSLSASVGDRVTITCRASQDISFFLNWYQQKPGKAPKLLIYYTSRYHSGVPSRFSGSGSGTEFTLTISSLQSEDFAVYYCQHGNTLPWTFGQG
- Kd [1]: 0.0207 nM

B6: NM9401-F(ab′)2 (other)
VH: QVQLQQSAPELARPGASVKMSCTASGYIFTNYPIHWVKQRPGQGLEWIGFIDPGGGYDEPDERFRDRATLTADKSSSTAYMQLSSLTSEDSAIYYCARRGGGYYLDYWGQGTTLTVSSAKTT
VL: DIQMTQTTSSLSASLGDRVTISCRASQDISFFLNWYQQKPDGTVKLLIYYTSRYHSGVPSRFSGSGSGTDFSLTINNLEQEDFATYFCQHGNTLPWTFGGGTKLEIKRADAAPTVSIFPPSSEQLTSGGASVVCFLNN
- Kd [2]: 0.118 nM

Results, then the binder that gave them:

- Kd [2]: 0.101 nM
- Kd [3]: 0.256 nM
- IC50 [4]: 10.7 nM
B2: NM9401-IgG (murine anti-properdin monoclonal antibody, IgG1) (antibody, V domains shown)
VH: QVQLQQSAPELARPGASVKMSCTASGYIFTNYPIHWVKQRPGQGLEWIGFIDPGGGYDEPDERFRDRATLTADKSSSTAYMQLSSLTSEDSAIYYCARRGGGYYLDYWGQGTTLTVSS
VL: DIQMTQTTSSLSASLGDRVTISCRASQDISFFLNWYQQKPDGTVKLLIYYTSRYHSGVPSRFSGSGSGTDFSLTINNLEQEDFATYFCQHGNTLPWTFGGGTKLEIKR

- Kd [2]: 0.103 nM
B3: NM9401-Fab (Fab, V domains shown)
VH: B2 VH
VL: B2 VL

- Kd [1]: 0.0236 nM
B4: BAP010hum10 (humanized anti-properdin monoclonal antibody) (antibody, V domains shown)
VH: QVQLQESGPGLVKPSQTLSLTCTVSGYIFTNYPIHWVRQATGQGLEWMGFIDPGGGYDEPDERFRDRVTITADKSTSTAYMELSSLRSEDTAVYYCARRGGGYYLDYWGQG
VL: B5 VL with V58I, S60P, S67Y, L73F, Q79E, S80A, F83A, V85T
